The text below walks through data of US20240270866A1 (Alector, published 2024).

The term Kd denotes the free concentration of one partner at which half of the binding sites on the other are occupied at equilibrium, for simple one-to-one binding. The low end stands for a tighter complex, the high end for a looser complex.

In experiment [1] the target is T1, human SIRPA Fc fusion antigen (human, UniProt P78324 31-373).
T1 construct: heterologous signal peptide; not shown: human IgG1 Fc
Briefly: ForteBio IgG avid. (In general: BLI is a label-free optical method that tracks binding on a fibre tip over time.)

For experiment [2], the target named is T2, human SIRPβ1 Fc fusion antigen (human, UniProt O00241 30-371).
T2 construct: not shown: human IgG1 Fc
T2 sequence (O00241 30-371 limits assumed): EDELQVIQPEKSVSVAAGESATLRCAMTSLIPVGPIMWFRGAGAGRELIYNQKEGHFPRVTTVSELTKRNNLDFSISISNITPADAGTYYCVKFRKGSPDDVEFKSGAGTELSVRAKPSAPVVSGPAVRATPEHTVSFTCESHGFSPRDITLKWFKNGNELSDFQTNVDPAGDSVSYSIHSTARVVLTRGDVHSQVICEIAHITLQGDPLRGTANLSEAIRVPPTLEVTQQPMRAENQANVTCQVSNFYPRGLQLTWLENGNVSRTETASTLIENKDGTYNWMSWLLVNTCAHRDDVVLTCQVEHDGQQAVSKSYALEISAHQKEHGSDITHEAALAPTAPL
Briefly: ForteBio IgG avid.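 Further: ForteBio sensor-based avid binding of anti-SIRPA antibodies in IgG format, with the binding partner in solution at 100 nM.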

B1: SA-19-79 (antibody, V domains shown)
VH: QVQLVESGGGVVQPGRSLRLSCAASGFTFSSYGMHWVRQAPGKGLEWVAVIAYDGSNKIYADSVKGRFTISRDNSKNTLYLQMNSLRAEDTAVYYCATTDTKYTLGFAFDIWGQGTMVTVSS
VL: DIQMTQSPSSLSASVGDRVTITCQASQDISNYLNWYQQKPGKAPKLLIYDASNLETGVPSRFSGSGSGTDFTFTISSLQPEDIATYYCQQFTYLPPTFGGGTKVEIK
notes: IgG
Consider B1, for which the results for the Kd in experiment [1] and in experiment [2] were 0.31 nM and 1.36 nM, respectively.

B2: SA-19-81 (antibody, V domains shown)
VH: QVQLVESGGGVVQPGRSLRLSCAASGFTSSSYGMHWVRQAPGKGLEWVAVIAYDGSNKLYADSVKGRFTISRDNSKNTLYLQMNSLRAEDTAVYYCARTPTKYTLGFAFDIWGQGTMVTVSS
VL: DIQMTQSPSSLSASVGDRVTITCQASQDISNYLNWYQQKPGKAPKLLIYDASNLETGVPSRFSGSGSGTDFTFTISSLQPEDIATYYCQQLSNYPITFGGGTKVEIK
notes: IgG
On to B2, for which the dissociation constant (Kd) amounted to 0.711 nM in experiment [1] and 2.59 nM in experiment [2].

B3: SA-19-84 (antibody, V domains shown)
VH: QVQLVESGGGVVQPGRSLRLSCAASGFTFSSYGMHWVRQAPGKGLEWVAVIAYDGSNKLYADSVKGRFTISRDNSKNTLYLQMNSLRAEDTAVYYCARTQLKYTLGFAFDIWGQGTMVTVSS
VL: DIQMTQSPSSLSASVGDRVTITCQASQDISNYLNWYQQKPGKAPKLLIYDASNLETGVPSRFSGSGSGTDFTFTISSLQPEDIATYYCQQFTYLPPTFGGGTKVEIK
notes: IgG
B3: the Kd in experiment [1] was found to be 0.573 nM; in experiment [2], 2.6 nM.

B4: SA-19-80 (antibody, V domains shown)
VH: EVQLLESGGGVVQPGRSLRLSCAASGFTFSSYGMHWVRQAPGKGLEWVAGILYDGSNKYYADSVKGRFTISRDNSKNTLYLQMDGLRAEDTAVYYCARHSVKYTLGFAFDIWGQGTMVTVSS
VL: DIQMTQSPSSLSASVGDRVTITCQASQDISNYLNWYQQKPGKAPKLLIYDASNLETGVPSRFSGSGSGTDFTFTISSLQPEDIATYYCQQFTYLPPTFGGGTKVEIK
notes: IgG
On to B4, for which the Kd stood at 1.41 nM in experiment [1] and 4.25 nM in experiment [2].

B5: SA-19-83 (antibody, V domains shown)
VH: QVQLVESGGGVVQPGRSLRLSCAASGFTFDSYLMHWVRQAPGKGLEWVASIIYDGSNKYYADSVKGRFTISRDNSKNTLYLQMNSLRAEDTAVYYCASVRTKYTLGFAFDIWGQGTMVTVSS
VL: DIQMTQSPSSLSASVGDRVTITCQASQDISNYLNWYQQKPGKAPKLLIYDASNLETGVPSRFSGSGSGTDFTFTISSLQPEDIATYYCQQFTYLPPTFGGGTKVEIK
notes: IgG
Turning to B5, the Kd in experiment [1] is 0.505 nM; in experiment [2], 2.82 nM.

B6: SA-19-82 (antibody, V domains shown)
VH: QVQLVESGGGVVQPGRSLRLSCAASGFTFSSYAMHWVRQAPGKGLEWVAGILYDGSNKYYADSVKGRFTISRDNSKNTLYLQMNSLRAEDTAVYYCARHVLKYTLGFAFDIWGQGTMVTVSS
VL: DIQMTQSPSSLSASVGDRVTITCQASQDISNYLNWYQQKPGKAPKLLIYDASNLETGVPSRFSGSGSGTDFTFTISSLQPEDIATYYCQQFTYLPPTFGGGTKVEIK
notes: IgG
Consider B6, for which the Kd in experiment [1] is 0.742 nM; in experiment [2], 3.45 nM.

B7: SA-5-61 (antibody, V domains shown)
VH: EVQLLESGGGLVQPGGSLKLSCAASGFTFDSYAMSWVRQAPGKGLEWVSAISGSGGSTYYADSVKGRFTISRDNSKNTLYLQMNSLRAEDTAVYYCAKDTGIDFWGQYPPYFDLWGRGTLVTVSS
VL: DIQLTQSPSSVSASVGDRVTITCRASQDISSWLAWYQQKPGKAPKLLIYAASSLQSGVPSRFSGSGSGTDFTLTISSLQPEDFATYYCQQGYIFPRTFGGGTKVEIK
notes: IgG
Take B7: the Kd was determined as 2.3 nM in experiment [1] and 9.31 nM in experiment [2].

B8: SA-5-57 (antibody, V domains shown)
VH: EVQLLESGGGLVQPGGSLRLSCAASGFTFDSYAMSWVRQAPGKGLEWVSATSGGGGSTYHADPVKGRFTISRDNSKNTLYLQMNSLRAEDTAVYYCAKDITDDFWSVTPPYFDLWGRGTLVTVSS
VL: DIQLTQSPSSVSASVGDRVTITCRASQDISSWLAWYQQKPGKAPKLLIYAASSLQSGVPSRFSGSGSGTDFTLTISSLQPEDFATYYCQQGYIFPRTFGGGTKVEIK
notes: IgG
Take B8: the Kd in experiment [1] amounted to 2.61 nM. Besides, in experiment [2], the binding result is recorded as “no binding (tested: 100 nM)”.

B9: SA-56-89 (antibody, V domains shown)
VH: EVQLVESGGGVVQPGGSLRLSCAASGFTFSYYGMSWVRQAPGKGLEWVASIWVDGSNKYYADSVKGRFTVSRDNSKNTLYLQMDSLRAEDTAVYYCARGVETYSGPNWFDPWGQGTLVTVSS
VL: DIQMTQSPSSVSASVGDRVTITCRASQGISSWLAWYQQKPGKAPKLLIYAASSLQSGVPSRFSGSGSGTDFTLTISSLQPEDFATYYCQQAIYFPITFGGGTKVEIK
notes: IgG; also called SA-89
In turn, B9 showed a Kd in experiment [1] of 0.415 nM. For the same molecule, the binding result in experiment [2] is given as “no binding (tested: 100 nM)”.

B10: SA-5-58 (antibody, V domains shown)
VH: EVQLLESGGGLVQPGGSLRLSCAASGFTFDSYAMSWVRQAPGKGLEWVSAISGSGGSTYHADSVKGRFTISRDNSKNTLYLQMNSLRAEDTAVYYCAKDTGISLWSVTPPYFDLWGRGTLVTVSS
VL: DIQLTQSPSSVSASVGDRVTITCRASQDISSWLAWYQQKPGKAPKLLIYAASSLQSGVPSRFSGSGSGTDFTLTISSLQPEDFATYYCQQGYIFPRTFGGGTKVEIK
notes: IgG
In experiment [1], B10 displayed a Kd of 2.78 nM. In experiment [2], the binding result is listed as “no binding (tested: 100 nM)”.

B11: SA-56-91 (antibody, V domains shown)
VH: EVQLVESGGGVVQPGRSLRLSCAASGFTFAHYGMAWVRQAPGKGLEWVASIWVDGSNKYYADSVKGRFTISRDNSKNTLYLQMNSLRAEDTAVYYCATAVETYSGPNWFDPWGQGTLVTVSS
VL: DIQMTQSPSSVSASVGDRVTITCRASQGISSWLAWYQQKPGKAPKLLIYAASSLQSGVPSRFSGSGSGTDFTLTISSLQPEDFATYYCQQAIYFPITFGGGTKVEIK
notes: IgG
As to B11, binding in experiment [1] was characterised by a dissociation constant (Kd) of 0.412 nM. Also, the binding result in experiment [2] is recorded as “no binding (tested: 100 nM)”.

B12: SA-56-85 (antibody, V domains shown)
VH: EVQLLESGGGVVQPGRSLGLSCAASGSTFSYYGMSWVRQAPGKGLEWVASIWVDGSNKYYADSVKGRFTISRDNSKSTLYLQMNSLRAEDTAVYYCARGVETYSGPNWFDPWGQGTLVTVSS
VL: DIQMTQSPSSVSASVGDRVTITCRASQGISSWLAWYQQKPGKAPKLLIYAASSLQSGVPSRFSGSGSGTDFTLTISSLQPEDFATYYCQQAIYFPITFGGGTKVENQ
notes: IgG; also called SA-85
B12 had a Kd in experiment [1] of 0.341 nM. In addition, in experiment [2], the binding result is recorded as “no binding (tested: 100 nM)”.

B13: SA-5-59 (antibody, V domains shown)
VH: EVQLLESGGGLVQPGGSLRLSCAASGFTFDNYAMSWVRQAPGEGLEWVSAVSGSGGSTYYADSVRGRFTISRDNSKNTLYLQMDSLRAEDTAVYYCAKDTGIDFWARTPPYFDLWGRGTLVTVSS
VL: DIQLTQSPSSVSASVGDRVTITCRASQDISSWLAWYQQKPGKAPKLLIYAASSLQSGVPSRFSGSGSGTDFTLTISSLQPEDFATYYCQQGYIFPRTFGGGTKVEIK
notes: IgG
As to B13, binding in experiment [1] was characterised by a dissociation constant (Kd) of 3.03 nM. For the same molecule, the binding result in experiment [2] is “no binding (tested: 100 nM)”.

B14: SA-56-90 (antibody, V domains shown)
VH: QVQLVESGGGVVQPGRSLRLSCAASGSTFSHYGMSWVRQAPGKGLEWVASIWVDGSNKYYADSVKGRFTISRDNSKNTLYLQMDSLRAEDTAVYYCARGVETYSGPNWFDPWGQGTLVTVSS
VL: DIQMTQSPSSVSASVGDRVTITCRASQGISSWLAWYQQKPGKAPKLLIYAASSLQSGVPSRFSGSGSGTDFTLTISSLQPEDFATYYCQQAIYFPITFGGGTKVEIK
notes: IgG; also called SA-90
Regarding B14, binding in experiment [1] was put at a Kd of 0.378 nM. In addition, the binding result in experiment [2] is “no binding (tested: 100 nM)”.

B15: SA-56-86 (antibody, V domains shown)
VH: QVQLVESGGGVVQPGGSLRLSCAASGFTFSYYGMSWVRQAPGKGLEWVASIWVDGSSKYYADSVKGRFTISRDNSKNTLYLQMNSLRAEDTAVYYCARGVETYSGPNWFDPWGQGTLVTVSS
VL: DIQMTQSPSSVSASVGDRVTITCRASQGISSWLAWYQQKPGKAPKLLIYAASSLQSGVPSRFSGSGSGTDFTLTISSLQPEDFATYYCQQAIYFPITFGGGTKVEIK
notes: IgG
Consider B15, for which the Kd in experiment [1] is 0.339 nM; in experiment [2] it was 12.4 nM.

B16: SA-56-88 (antibody, V domains shown)
VH: EVQLVESGGGVVQPGRSLRLSCAASGFTFSYYGMSWVRQAPGKGLEWVASIWVDGSNKYYADSAKGRFTISRDNSKNTLYLQMNSLRAEDTAVYYCAEGKETYSGPNWFDPWGQGTLVTVSS
VL: DIQMTQSPSSVSASVGDRVTITCRASQGISSWLAWYQQKPGKAPKLLIYAASSLQSGVPSRFSGSGSGTDFTLTISSLQPEDFATYYCQQAIYFPITFGGGTKVEIK
notes: IgG
In experiment [1], B16 came in with a Kd of 0.379 nM. The binding result in experiment [2] was “no binding (tested: 100 nM)”.

B17: SA-56-87 (antibody, V domains shown)
VH: EVQLVESGGGVVQPGRSLRLSCAASGFTFSYYGMSWVRQAPGKGLEWVASIWVDGSNKYYADSVKGRFTISRDNSKNTLYLQMNSLRAEDTAVYYCAFGLETYSGPNWFDPWGQGTLVTVSS
VL: DIQMTQSPSSVSASVGDRVTITCRASQGISSWLAWYQQKPGKAPKLLIYAASSLQSGVPSRFSGSGSGTDFTLTISSLQPEDFATYYCQQAIYFPITFGGGTKVEIK
notes: IgG
In the case of B17, the Kd in experiment [1] came out at 0.396 nM. In experiment [2], the binding result is given as “no binding (tested: 100 nM)”.

B18: SA-13-68 (antibody, V domains shown)
VH: EVQLLESGGGLVQPGGSLRLSCAASGFTFTEYAMSWVRQAPGKRLEWVSAISGSGGSTYYADSVKGRFTISRDNSKNTLYLQMSSLRAEDTAVYYCARDNIQWGPHFYWGQGTLVTVSS
VL: DIQMTQSPSSLSASVGDRVTITCRASQSISSYLNWYQQKPGKAPKLLIYAASSLQSGVPSRFSGSGSGTDFTLTISSLQPEDFATYYCQQGYIYPPTFGGGTKVEIK
notes: IgG
In the case of B18, the dissociation constant Kd in experiment [1] came to 1.92 nM; in experiment [2], 3.45 nM.

B19: SA-8-66 (antibody, V domains shown)
VH: QVQLVESGGGVVQPGRSLRLSCAASGFTFSSYGMHWVRQAPGKGLEWVAVINGDGSNKYYADSVKGRFTISRDNSKNTLYLQMNSLRAEDTAVYYCAKEPRSYWHGYGMDVWGQGTTVTVSS
VL: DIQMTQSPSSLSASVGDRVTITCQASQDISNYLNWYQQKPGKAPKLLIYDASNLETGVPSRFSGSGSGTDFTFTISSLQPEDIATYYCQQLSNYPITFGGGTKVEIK
notes: IgG
Take B19: the Kd in experiment [1] was found to be 2.14 nM; in experiment [2], 13.1 nM.

B20: SA-8-62 (antibody, V domains shown)
VH: QVQLVESGGGLVKPGGSLRLSCAASGFTFSSYSMHWVRQAPGKGLEWVSSISSSDSWIYYADSVKGRFTISRDNAKNSLYLQMDSLRAEDTAVYYCAKERVDYWHGYGMDVWGQGTTVTVSS
VL: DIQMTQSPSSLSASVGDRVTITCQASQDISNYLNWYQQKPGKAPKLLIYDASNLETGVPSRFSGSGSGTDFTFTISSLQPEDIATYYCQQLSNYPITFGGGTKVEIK
notes: IgG
For the molecule B20, the Kd worked out at 0.371 nM in experiment [1] and 4.67 nM in experiment [2].

B21: SA-8-64 (antibody, V domains shown)
VH: QVQLVESGGGLVKPGGSLRLSCAASGFTFSSYSMHWVRQAPGKGLEWVSSISSSDSWIYYADSVKGRFTISRDNAKNSLYLQMNSLRAEDTAVYYCAKEPRSYWHGYGMDVWGQGTTVTVSS
VL: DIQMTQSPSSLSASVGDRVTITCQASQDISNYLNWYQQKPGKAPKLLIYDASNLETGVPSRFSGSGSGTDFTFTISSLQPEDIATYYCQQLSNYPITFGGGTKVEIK
notes: IgG
As to B21, the Kd is 0.952 nM in experiment [1] and 8.36 nM in experiment [2].

B22: SA-8-67 (antibody, V domains shown)
VH: EVQLVESGGGLVKPGGSLRLSCAASGFTFSSYSMHWVRQAPGKGLEWVSSISSSPSHIYYADSVKGRFTISRDNAKNSLYLQMNSLRAEDTAVYYCAKEPRSYWHGYGMDVWGQGTTVTVSS
VL: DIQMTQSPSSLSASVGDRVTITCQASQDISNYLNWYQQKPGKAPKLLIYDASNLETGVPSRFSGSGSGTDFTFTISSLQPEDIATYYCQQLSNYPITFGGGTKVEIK
notes: IgG
For the molecule B22, the results for the Kd in experiment [1] and in experiment [2] were 1.84 nM and 14.2 nM, respectively.
